Experimental data published in patent publication US20050182242A1, “Global analysis of protein activities using proteome chips” (priority 2001, published 2005).

B1: FRM2: yeast GST-HisX6 fusion protein on proteome chip (protein, UniProt P37261 1-193, looked up)
nitroreductase FRM2: MSPTGNYLNAITNRRTIYNLKPELPQGVGLDDVKRTVHVILKNTPTAFNSQVNRAVIIVGDTHKRIWDAVASAMPTAEAKKRPESCRDEAYGSVIFFTDEGPTEKLQRDFPALAAAFPTCAAHTTGAVQIQSWTALELLGLGANLQHYNDYVKSALPQDVPIAWTVQSQLVFGVPTALPEEKTFINNVINVYH
modifications: GST-His6 fusion tag
notes: yeast GST-HisX6 fusion protein on proteome chip
B2: FBP26: yeast GST-HisX6 fusion protein on proteome chip (protein, UniProt P32604 1-452, looked up)
Fructose-2,6-bisphosphatase: MGYSTISNDNDIKVCVIMVGLPARGKSFISQKIIRYLSWLSIKAKCFNVGNYRRDVSGNVPMDAEFFNFENTDNFKLRELAAQNAIKDIVNFFTKEDGSVAVFDATNSTRKRRKWLKDICEKNNIQPMFLESWSNDHELIINNAKDIGSTSPDYENSEPHVAEADFLERIRQYERFYEPLDPQKDKDMTFIKLVNIIEEVVINKIRTYLESRIVFYVMNIRPKPKYIWLSRHGESIYNVEKKIGGDSSLSERGFQYAKKLEQLVKESAGEINLTVWTSTLKRTQQTANYLPYKKLQWKALDELDAGVCDGMTYEEIEKEYPEDFKARDNDKYEYRYRGGESYRDVVIRLEPVIMELERQENVLIITHQAVLRCIYAYFMNVPQEESPWMSIPLHTLIKLEPRAYGTKVTKIKANIPAVSTYKEKGTSQVGELSQSSTKLHQLLNDSPLEDKF
modifications: GST-His6 tag
notes: as for B1
B3: MPS1: yeast GST-HisX6 fusion protein on proteome chip (protein, UniProt P54199 1-764, looked up)
Serine/threonine-protein …: MSTNSFHDYVDLKSRTNTRQFSDDEEFTTPPKLSNFGSALLSHTEKTSASEILSSHNNDKIANRLEEMDRSSSRSHPPPSMGNLTSGHTSTSSHSTLFGRYLRNNHQTSMTTMNTSDIEINVGNSLDKSFERIRNLRQNMKEDITAKYAERRSKRFLISNRTTKLGPAKRAMTLTNIFDEDVPNSPNQPINARETVELPLEDSHQTNFKETKRNTDYDSIDFGDLNPIQYIKKHNLPTSDLPLISQIYFDKQREENRQAALRKHSSRELLYKSRSSSSSLSSNNLLANKDNSITSNNGSQPRRKVSTGSSSSKSSIEIRRALKENIDTSNNSNFNSPIHKIYKGISRNKDSDSEKREVLRNISINANHADNLLQQENKRLKRSLDDAITNENINSKNLEVFYHRPAPKPPVTKKVEIVEPAKSASLSNNRNIITVNDSQYEKIELLGRGGSSRVYKVKGSGNRVYALKRVSFDAFDDSSIDGFKGEIELLEKLKDQKRVIQLLDYEMGDGLLYLIMECGDHDLSQILNQRSGMPLDFNFVRFYTKEMLLCIKVVHDAGIVHSDLKPANFVLVKGILKIIDFGIANAVPEHTVNIYRETQIGTPNYMAPEALVAMNYTQNSENQHEGNKWKVGRPSDMWSCGCIIYQMIYGKPPYGSFQGQNRLLAIMNPDVKIPFPEHTSNNEKIPKSAIELMKACLYRNPDKRWTVDKVLSSTFLQPFMISGSIMEDLIRNAVRYGSEKPHISQDDLNDVVDTVLRKFADYKI
modifications: GST-HisX6 tag
notes: as for B1
B4: VTC4: yeast GST-HisX6 fusion protein on proteome chip (protein, UniProt P47075 1-721, looked up)
Vacuolar transporter …: MKFGEHLSKSLIRQYSYYYISYDDLKTELEDNLSKNNGQWTQELETDFLESLEIELDKVYTFCKVKHSEVFRRVKEVQEQVQHTVRLLDSNNPPTQLDFEILEEELSDIIADVHDLAKFSRLNYTGFQKIIKKHDKKTGFILKPVFQVRLDSKPFFKENYDELVVKISQLYDIARTSGRPIKGDSSAGGKQQNFVRQTTKYWVHPDNITELKLIILKHLPVLVFNTNKEFEREDSAITSIYFDNENLDLYYGRLRKDEGAEAHRLRWYGGMSTDTIFVERKTHREDWTGEKSVKARFALKERHVNDFLKGKYTVDQVFAKMRKEGKKPMNEIENLEALASEIQYVMLKKKLRPVVRSFYNRTAFQLPGDARVRISLDTELTMVREDNFDGVDRTHKNWRRTDIGVDWPFKQLDDKDICRFPYAVLEVKLQTQLGQEPPEWVRELVGSHLVEPVPKFSKFIHGVATLLNDKVDSIPFWLPQMDVDIRKPPLPTNIEITRPGRSDNEDNDFDEDDEDDAALVAAMTNAPGNSLDIEESVGYGATSAPTSNTNHVVESANAAYYQRKIRNAENPISKKYYEIVAFFDHYFNGDQISKIPKGTTFDTQIRAPPGKTICVPVRVEPKVYFATERTYLSWLSISILLGGVSTTLLTYGSPTAMIGSIGFFITSLAVLIRTVMVYAKRVVNIRLKRAVDYEDKIGPGMVSVFLILSILFSFFCNLVAK
modifications: GST-HisX6 tag
notes: as for B1
B5: PEX4: yeast GST-HisX6 fusion protein on proteome chip (protein, UniProt P29340 1-183, looked up)
Ubiquitin-conjugating enzyme …: MPNFWILENRRSYTSDTCMSRIVKEYKVILKTLASDDPIANPYRGIIESLNPIDETDLSKWEAIISGPSDTPYENHQFRILIEVPSSYPMNPPKISFMQNNILHCNVKSATGEICLNILKPEEWTPVWDLLHCVHAVWRLLREPVCDSPLDVDIGNIIRCGDMSAYQGIVKYFLAERERINNH
modifications: GST-His6 tag
notes: as for B1
B6: FUR1: yeast GST-HisX6 fusion protein on proteome chip (protein, UniProt P18562 1-216, looked up)
Uracil …: MSSEPFKNVYLLPQTNQLLGLYTIIRNKNTTRPDFIFYSDRIIRLLVEEGLNHLPVQKQIVETDTNENFEGVSFMGKICGVSIVRAGESMEQGLRDCCRSVRIGKILIQRDEETALPKLFYEKLPEDISERYVFLLDPMLATGGSAIMATEVLIKRGVKPERIYFLNLICSKEGIEKYHAAFPEVRIVTGALDRGLDENKYLVPGLGDFGDRYYCV
modifications: GST-His6 fusion tag
notes: as for B1
B7: TAT2: yeast GST-HisX6 fusion protein on proteome chip (protein, UniProt P38967 1-592, looked up)
Tryptophan permease: MTEDFISSVKRSNEELKERKSNFGFVEYKSKQLTSSSSHNSNSSHHDDDNQHGKRNIFQRCVDSFKSPLDGSFDTSNLKRTLKPRHLIMIAIGGSIGTGLFVGSGKAIAEGGPLGVVIGWAIAGSQIIGTIHGLGEITVRFPVVGAFANYGTRFLDPSISFVVSTIYVLQWFFVLPLEIIAAAMTVQYWNSSIDPVIWVAIFYAVIVSINLFGVRGFGEAEFAFSTIKAITVCGFIILCVVLICGGGPDHEFIGAKYWHDPGCLANGFPGVLSVLVVASYSLGGIEMTCLASGETDPKGLPSAIKQVFWRILFFFLISLTLVGFLVPYTNQNLLGGSSVDNSPFVIAIKLHHIKALPSIVNAVILISVLSVGNSCIFASSRTLCSMAHQGLIPWWFGYIDRAGRPLVGIMANSLFGLLAFLVKSGSMSEVFNWLMAIAGLATCIVWLSINLSHIRFRLAMKAQGKSLDELEFVSAVGIWGSAYSALINCLILIAQFYCSLWPIGGWTSGKERAKIFFQNYLCALIMLFIFIVHKIYYKCQTGKWWGVKALKDIDLETDRKDIDIEIVKQEIAEKKMYLDSRPWYVRQFHFWC
modifications: GST-His6 tag
notes: as for B1
B8: APS2: yeast GST-HisX6 fusion protein on proteome chip (protein, UniProt Q00381 1-147, looked up)
AP-2 complex subunit sigma: MAVQFILCFNKQGVVRLVRWFDVHSSDPQRSQDAIAQIYRLISSRDHKHQSNFVEFSDSTKLIYRRYAGLYFVMGVDLLDDEPIYLCHIHLFVEVLDAFFGNVCELDIVFNFYKVYMIMDEMFIGGEIQEISKDMLLERLSILDRLD
modifications: GST-HisX6 tag
notes: as for B1

Tests used:
Conditions in all cases: liposome binding signal on yeast proteome chip, Cy3-streptavidin detection
PI(3,4,5)P3 liposomes = experiment: Yeast proteome chip probed with PI(3,4,5)P3 liposomes
PI(3)P liposomes = experiment: Yeast proteome chip probed with PI(3)P liposomes
PI(4,5)P2 liposomes = experiment: Yeast proteome chip probed with PI(4,5)P2 liposomes
PI(3,4)P2 liposomes = experiment: Yeast proteome chip probed with PI(3,4)P2 liposomes
[1] = tested on: phosphatidylcholine (PC) liposomes; experiment: Yeast proteome chip probed with PC liposomes
Procedure, shortened: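 Yeast proteome chips incubated 1 h at RT with sonicated liposomes of PC containing 1% (w/w) biotin-DHPE, plus 5% (w/w) of the indicated phosphoinositide where applicable. After PBS washes, bound liposomes detected with Cy3- or Cy5-streptavidin (>30 min, RT, dark) and fluorescence scanned.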

PI(4)P liposomes = experiment: Yeast proteome chip probed with PI(4)P liposomes

Molecule | PI(3, 4, 5)P3 (PI(3,4,5)P3 liposomes) | PI(3)P (PI(3)P liposomes) | PI(4, 5)P2 (PI(4,5)P2 liposomes) | PI(3, 4)P2 (PI(3,4)P2 liposomes) | PC [1] | PI(4)P (PI(4)P liposomes)
B1 | 16.88 | 3.50 | 75.34 | 59.34 | 63.39 | 12.63
B2 | 25.31 | 5.75 | 47.90 | 48.51 | 107.41 | 62.06
B3 | 1864.12 | 310.00 | 1084.79 | 4216.40 | 4374.59 | 6148.60
B4 | 25.31 | 8.50 | 26.78 | 30.45 | 66.03 | 99.07
B5 | 21.49 | 1.75 | 28.31 | 8.63 | 69.85 | 57.48
B6 | 72.22 | 112.25 | 111.70 | 210.19 | 95.67 | 148.94
B7 | 68.29 | 60.50 | 85.79 | 62.48 | 83.93 | 51.39
B8 | 15.97 | 39.50 | 103.65 | 56.51 | 58.70 | 159.82
